Patent US12097241B2, “Methods of treating kidney failure, and/or improving or stablizing renal function using modified relaxin polypeptides” (BRISTOL-MYERS SQUIBB COMPANY, priority 2017, dated 2024)
Like-named read-outs stand apart in the source and are kept apart here.

Experiment: In vivo pharmacokinetic (PK) studies in rats
Parameters: species or system Sprague-Dawley rats
Conditions: for level at time molar at 24 h: read-out: Rat PK C24; for AUC(0-inf): read-out: Rat PK AUC Total
Procedure: […] Blood samples were collected via jugular vein at different time points out to 72 hours. Blood samples were allowed to coagulate at room temperature (30-60 m) and then centrifuged (1500-2000) at 4° C. to obtain serum. After centrifugation serum samples were transferred to 96 well plates and stored at −80° C. until bioanalysis. Relaxin concentrations were measured from serum by ELISA.
Relaxin concentration-time profiles from individual animals were used for analysis. Pharmacokinetic parameters were calculated by non-compartmental methods using Phoenix WinNonlin (version 6.4) or Kinetica (version 5). Mean pharmacokinetic parameters Cmax, AUCinf, C24 and half-life were reported (Table 4). Table 4. In vivo PK data (abbreviations as in Table 3).

[1] = rats, SC dose 1.0 mg/kg, adjusted from 0.5 mpk
[2] = rat, male Sprague-Dawley rats, single SC dose 1.0 mg/kg, serum ELISA

Row | SMILES | Rat PK AUC Total [1] | level at time molar at 24 h [1] | AUC(0-inf) [2] | level at time molar at 24 h [2]
1 | CC[C@H](C)[C@@H]1NC(=O)[C@H](C)NC(=O)[C@H]([C@@H](C)CC)NC(=O)[C@H](CCC(N)=O)NC(=O)[C@H](C)NC(=O)[C@H](CCCNC(=N)N)NC(=O)[C@H](C(C)C)NC(=O)[C@H](CC(C)C)NC(=O)[C@H](CCC(=O)O)NC(=O)[C@H](CCCNC(=N)N)NC(=O)CNC(=O)[C@@H](NC(=O)[C@H](CC(C)C)NC(=O)[C@H](CCCCN)NC(=O)[C@@H](NC(=O)[C@@H](NC(=O)[C@H](CCC(=O)O)NC(=O)[C@H](CCC(=O)O)NC(=O)[C@H](CCSC)NC(=O)[C@H](Cc2c[nH]c3ccccc23)NC(=O)[C@H](CO)NC(=O)[C@H](C)N)C(C)C)[C@@H](C)CC)CSSC[C@@H]2NC(=O)[C@@H](NC(=O)[C@H](CCCCN)NC(=O)[C@H](CC(N)=O)NC(=O)[C@H](C)NC(=O)[C@H](CC(C)C)NC(=O)[C@H](C)NC(=O)[C@H](CO)NC(=O)[C@H](Cc3ccc(O)cc3)NC(=O)[C@H](CC(C)C)NC(=O)[C@@H](N)Cc3ccc(C(C)=NOCCNC(=O)[C@H](CCC(=O)O)NC(=O)[C@H](CCC(=O)O)NC(=O)[C@H](CCC(=O)O)NC(=O)CNC(=O)CNC(=O)CNC(=O)CC[C@H](NC(=O)CCCCCCCCCCCCCC(=O)O)C(=O)O)cc3)CSSC[C@H](NC(=O)CNC(=O)[C@H](C(C)C)NC(=O)[C@H](Cc3c[nH]cn3)NC2=O)C(=O)N[C@@H]([C@@H](C)O)C(=O)N[C@@H](CCCCN)C(=O)N[C@@H](CCCNC(=N)N)C(=O)N[C@@H](CO)C(=O)N[C@@H](CC(C)C)C(=O)N[C@@H](C)C(=O)N[C@@H](CCCNC(=N)N)C(=O)N[C@@H](Cc2ccccc2)C(=O)N[C@H](C(=O)O)CSSC[C@@H](C(=O)NCC(=O)N[C@@H](CCSC)C(=O)N[C@@H](CO)C(=O)N[C@H](C(=O)N[C@@H](Cc2c[nH]c3ccccc23)C(=O)N[C@@H](CO)C(=O)O)[C@@H](C)O)NC1=O [AQ1-EEEGGG-Glu^γ-C14-COOH] | 2.137 µM·h | 5.2 nM |  | 
2 | CCCCCCCCCCCCCCCC(=O)N[C@@H](CCC(=O)NCC(=O)NCC(=O)NCC(=O)N[C@@H](CCC(=O)O)C(=O)N[C@@H](CCC(=O)O)C(=O)N[C@@H](CCC(=O)O)C(=O)NCCON=C(C)c1ccc(C[C@H](N)C(=O)N[C@@H](CC(C)C)C(=O)N[C@@H](Cc2ccc(O)cc2)C(=O)N[C@@H](CO)C(=O)N[C@@H](C)C(=O)N[C@@H](CC(C)C)C(=O)N[C@@H](C)C(=O)N[C@@H](CC(N)=O)C(=O)N[C@@H](CCCCN)C(=O)N[C@H]2CSSC[C@@H]3NC(=O)CNC(=O)[C@H](C(C)C)NC(=O)[C@H](Cc4c[nH]cn4)NC(=O)[C@H](CSSC[C@H](NC(=O)[C@H](CC(C)C)NC(=O)[C@H](CCCCN)NC(=O)[C@@H](NC(=O)[C@@H](NC(=O)[C@H](CCC(=O)O)NC(=O)[C@H](CCC(=O)O)NC(=O)[C@H](CCSC)NC(=O)[C@H](Cc4c[nH]c5ccccc45)NC(=O)[C@H](CO)NC(=O)[C@H](C)N)C(C)C)[C@@H](C)CC)C(=O)NCC(=O)N[C@@H](CCCNC(=N)N)C(=O)N[C@@H](CCC(=O)O)C(=O)N[C@@H](CC(C)C)C(=O)N[C@@H](C(C)C)C(=O)N[C@@H](CCCNC(=N)N)C(=O)N[C@@H](C)C(=O)N[C@@H](CCC(N)=O)C(=O)N[C@@H]([C@@H](C)CC)C(=O)N[C@@H](C)C(=O)N[C@@H]([C@@H](C)CC)C(=O)N[C@H](C(=O)NCC(=O)N[C@@H](CCSC)C(=O)N[C@@H](CO)C(=O)N[C@H](C(=O)N[C@@H](Cc4c[nH]c5ccccc45)C(=O)N[C@@H](CO)C(=O)O)[C@@H](C)O)CSSC[C@@H](C(=O)O)NC(=O)[C@H](Cc4ccccc4)NC(=O)[C@H](CCCNC(=N)N)NC(=O)[C@H](C)NC(=O)[C@H](CC(C)C)NC(=O)[C@H](CO)NC(=O)[C@H](CCCNC(=N)N)NC(=O)[C@H](CCCCN)NC(=O)[C@H]([C@@H](C)O)NC3=O)NC2=O)cc1)C(=O)O [AQ1-EEEGGG-Glu^γ-C15-CH3] |  |  | 0.37 µM·h | 0.89 nM
3 | CC[C@H](C)[C@@H]1NC(=O)[C@H](C)NC(=O)[C@H]([C@@H](C)CC)NC(=O)[C@H](CCC(N)=O)NC(=O)[C@H](C)NC(=O)[C@H](CCCNC(=N)N)NC(=O)[C@H](C(C)C)NC(=O)[C@H](CC(C)C)NC(=O)[C@H](CCC(=O)O)NC(=O)[C@H](CCCNC(=N)N)NC(=O)CNC(=O)[C@@H](NC(=O)[C@H](CC(C)C)NC(=O)[C@H](CCCCN)NC(=O)[C@@H](NC(=O)[C@@H](NC(=O)[C@H](CCC(=O)O)NC(=O)[C@H](CCC(=O)O)NC(=O)[C@H](CCSC)NC(=O)[C@H](Cc2c[nH]c3ccccc23)NC(=O)[C@H](CO)NC(=O)[C@H](C)N)C(C)C)[C@@H](C)CC)CSSC[C@@H]2NC(=O)[C@@H](NC(=O)[C@H](CCCCN)NC(=O)[C@H](CC(N)=O)NC(=O)[C@H](C)NC(=O)[C@H](CC(C)C)NC(=O)[C@H](C)NC(=O)[C@H](CO)NC(=O)[C@H](Cc3ccc(O)cc3)NC(=O)[C@H](CC(C)C)NC(=O)[C@@H](N)Cc3ccc(C(C)=NOCCNC(=O)[C@H](CCC(=O)O)NC(=O)[C@H](CCC(=O)O)NC(=O)[C@H](CCC(=O)O)NC(=O)CNC(=O)CNC(=O)CNC(=O)CC[C@H](NC(=O)CCCCCCCCCCCCCCC(=O)O)C(=O)O)cc3)CSSC[C@H](NC(=O)CNC(=O)[C@H](C(C)C)NC(=O)[C@H](Cc3c[nH]cn3)NC2=O)C(=O)N[C@@H]([C@@H](C)O)C(=O)N[C@@H](CCCCN)C(=O)N[C@@H](CCCNC(=N)N)C(=O)N[C@@H](CO)C(=O)N[C@@H](CC(C)C)C(=O)N[C@@H](C)C(=O)N[C@@H](CCCNC(=N)N)C(=O)N[C@@H](Cc2ccccc2)C(=O)N[C@H](C(=O)O)CSSC[C@@H](C(=O)NCC(=O)N[C@@H](CCSC)C(=O)N[C@@H](CO)C(=O)N[C@H](C(=O)N[C@@H](Cc2c[nH]c3ccccc23)C(=O)N[C@@H](CO)C(=O)O)[C@@H](C)O)NC1=O [AQ1-EEEGGG-Glu^γ-C15-COOH] |  |  | 3.55 µM·h | 22 nM
4 | CC[C@H](C)[C@@H]1NC(=O)[C@H](C)NC(=O)[C@H]([C@@H](C)CC)NC(=O)[C@H](CCC(N)=O)NC(=O)[C@H](C)NC(=O)[C@H](CCCNC(=N)N)NC(=O)[C@H](C(C)C)NC(=O)[C@H](CC(C)C)NC(=O)[C@H](CCC(=O)O)NC(=O)[C@H](CCCNC(=N)N)NC(=O)CNC(=O)[C@@H](NC(=O)[C@H](CC(C)C)NC(=O)[C@H](CCCCN)NC(=O)[C@@H](NC(=O)[C@@H](NC(=O)[C@H](CCC(=O)O)NC(=O)[C@H](CCC(=O)O)NC(=O)[C@H](CCSC)NC(=O)[C@H](Cc2c[nH]c3ccccc23)NC(=O)[C@H](CO)NC(=O)[C@H](C)N)C(C)C)[C@@H](C)CC)CSSC[C@@H]2NC(=O)[C@@H](NC(=O)[C@H](CCCCN)NC(=O)[C@H](CC(N)=O)NC(=O)[C@H](C)NC(=O)[C@H](CC(C)C)NC(=O)[C@H](C)NC(=O)[C@H](CO)NC(=O)[C@H](Cc3ccc(O)cc3)NC(=O)[C@H](CC(C)C)NC(=O)[C@@H](N)Cc3ccc(C(C)=NOCCNC(=O)CNC(=O)[C@H](CCC(=O)O)NC(=O)[C@@H](NC(=O)CNC(=O)[C@H](CO)NC(=O)[C@H](CO)NC(=O)CNC(=O)[C@H](CCC(=O)O)NC(=O)CNC(=O)[C@@H](NC(=O)CC[C@H](NC(=O)CCCCCCCCCCCCC(=O)O)C(=O)O)[C@@H](C)O)[C@@H](C)O)cc3)CSSC[C@H](NC(=O)CNC(=O)[C@H](C(C)C)NC(=O)[C@H](Cc3c[nH]cn3)NC2=O)C(=O)N[C@@H]([C@@H](C)O)C(=O)N[C@@H](CCCCN)C(=O)N[C@@H](CCCNC(=N)N)C(=O)N[C@@H](CO)C(=O)N[C@@H](CC(C)C)C(=O)N[C@@H](C)C(=O)N[C@@H](CCCNC(=N)N)C(=O)N[C@@H](Cc2ccccc2)C(=O)N[C@H](C(=O)O)CSSC[C@@H](C(=O)NCC(=O)N[C@@H](CCSC)C(=O)N[C@@H](CO)C(=O)N[C@H](C(=O)N[C@@H](Cc2c[nH]c3ccccc23)C(=O)N[C@@H](CO)C(=O)O)[C@@H](C)O)NC1=O [AQ1-GETGSSGEGT-Glu^γ-C13-COOH] |  |  | 1.11 µM·h | 0.28 nM
